B1: EEHEE_rd4_0647 (parent)
chain: MQVTWGNVTVTFSNPEEAKKYAEKVARKLGGQVELHNGQFRIK

Variants of: B1
Experiment: folding stability dG (cDNA display proteolysis); higher = more stable
Conditions: PBS, room temperature

Variant | folding stability dG
MQVTWGNVTVTFSNPLEAKKYAEKVARKLGGQVELHNGQFRIK [E16L] | 2.78 kcal/mol
MQVTWGNVTVTFSNPMEAKKYAEKVARKLGGQVELHNGQFRIK [E16M] | 2.76 kcal/mol
MQVTWGNVTVTFSNPNEAKKYAEKVARKLGGQVELHNGQFRIK [E16N] | 2.56 kcal/mol
MQVTWGNVTVTFSNPPEAKKYAEKVARKLGGQVELHNGQFRIK [E16P] | 1.4 kcal/mol
MQVTWGNVTVTFSNPQEAKKYAEKVARKLGGQVELHNGQFRIK [E16Q] | 2.7 kcal/mol
MQVTWGNVTVTFSNPREAKKYAEKVARKLGGQVELHNGQFRIK [E16R] | 2.55 kcal/mol
MQVTWGNVTVTFSNPSEAKKYAEKVARKLGGQVELHNGQFRIK [E16S] | 2.68 kcal/mol
MQVTWGNVTVTFSNPTEAKKYAEKVARKLGGQVELHNGQFRIK [E16T] | 2.75 kcal/mol
MQVTWGNVTVTFSNPVEAKKYAEKVARKLGGQVELHNGQFRIK [E16V] | 2.81 kcal/mol
MQVTWGNVTVTFSNPWEAKKYAEKVARKLGGQVELHNGQFRIK [E16W] | 2.75 kcal/mol
MQVTWGNVTVTFSNPYEAKKYAEKVARKLGGQVELHNGQFRIK [E16Y] | 2.77 kcal/mol
MQVTWGNVTVTFSNPEAAKKYAEKVARKLGGQVELHNGQFRIK [E17A] | 2.93 kcal/mol
MQVTWGNVTVTFSNPECAKKYAEKVARKLGGQVELHNGQFRIK [E17C] | 3.18 kcal/mol
MQVTWGNVTVTFSNPEDAKKYAEKVARKLGGQVELHNGQFRIK [E17D] | 2.92 kcal/mol
MQVTWGNVTVTFSNPEFAKKYAEKVARKLGGQVELHNGQFRIK [E17F] | 2.47 kcal/mol
MQVTWGNVTVTFSNPEGAKKYAEKVARKLGGQVELHNGQFRIK [E17G] | 1.97 kcal/mol
MQVTWGNVTVTFSNPEHAKKYAEKVARKLGGQVELHNGQFRIK [E17H] | 2.7 kcal/mol
MQVTWGNVTVTFSNPEIAKKYAEKVARKLGGQVELHNGQFRIK [E17I] | 2.66 kcal/mol
MQVTWGNVTVTFSNPEKAKKYAEKVARKLGGQVELHNGQFRIK [E17K] | 2.69 kcal/mol
MQVTWGNVTVTFSNPELAKKYAEKVARKLGGQVELHNGQFRIK [E17L] | 2.84 kcal/mol

Variant | folding stability dG
MQVTWGNVTVTFSNPEMAKKYAEKVARKLGGQVELHNGQFRIK [E17M] | 2.83 kcal/mol
MQVTWGNVTVTFSNPENAKKYAEKVARKLGGQVELHNGQFRIK [E17N] | 2.47 kcal/mol
MQVTWGNVTVTFSNPEPAKKYAEKVARKLGGQVELHNGQFRIK [E17P] | 1.01 kcal/mol
MQVTWGNVTVTFSNPEQAKKYAEKVARKLGGQVELHNGQFRIK [E17Q] | 2.76 kcal/mol
MQVTWGNVTVTFSNPERAKKYAEKVARKLGGQVELHNGQFRIK [E17R] | 2.62 kcal/mol
MQVTWGNVTVTFSNPESAKKYAEKVARKLGGQVELHNGQFRIK [E17S] | 2.73 kcal/mol
MQVTWGNVTVTFSNPETAKKYAEKVARKLGGQVELHNGQFRIK [E17T] | 2.74 kcal/mol
MQVTWGNVTVTFSNPEVAKKYAEKVARKLGGQVELHNGQFRIK [E17V] | 2.64 kcal/mol
MQVTWGNVTVTFSNPEWAKKYAEKVARKLGGQVELHNGQFRIK [E17W] | 2.53 kcal/mol
MQVTWGNVTVTFSNPEYAKKYAEKVARKLGGQVELHNGQFRIK [E17Y] | 2.58 kcal/mol
MQVTWGNVTVTFSNPEECKKYAEKVARKLGGQVELHNGQFRIK [A18C] | 1.92 kcal/mol
MQVTWGNVTVTFSNPEEDKKYAEKVARKLGGQVELHNGQFRIK [A18D] | -0.206 kcal/mol
MQVTWGNVTVTFSNPEEEKKYAEKVARKLGGQVELHNGQFRIK [A18E] | 0.034 kcal/mol
MQVTWGNVTVTFSNPEEFKKYAEKVARKLGGQVELHNGQFRIK [A18F] | 1.05 kcal/mol
MQVTWGNVTVTFSNPEEGKKYAEKVARKLGGQVELHNGQFRIK [A18G] | 1.05 kcal/mol
MQVTWGNVTVTFSNPEEHKKYAEKVARKLGGQVELHNGQFRIK [A18H] | 0.323 kcal/mol
MQVTWGNVTVTFSNPEEIKKYAEKVARKLGGQVELHNGQFRIK [A18I] | 0.86 kcal/mol
MQVTWGNVTVTFSNPEEKKKYAEKVARKLGGQVELHNGQFRIK [A18K] | 0.212 kcal/mol
MQVTWGNVTVTFSNPEELKKYAEKVARKLGGQVELHNGQFRIK [A18L] | 1 kcal/mol
MQVTWGNVTVTFSNPEEMKKYAEKVARKLGGQVELHNGQFRIK [A18M] | 0.885 kcal/mol

Variant | folding stability dG
MQVTWGNVTVTFSNPEENKKYAEKVARKLGGQVELHNGQFRIK [A18N] | 0.024 kcal/mol
MQVTWGNVTVTFSNPEEPKKYAEKVARKLGGQVELHNGQFRIK [A18P] | -0.247 kcal/mol
MQVTWGNVTVTFSNPEEQKKYAEKVARKLGGQVELHNGQFRIK [A18Q] | 0.42 kcal/mol
MQVTWGNVTVTFSNPEERKKYAEKVARKLGGQVELHNGQFRIK [A18R] | 0.219 kcal/mol
MQVTWGNVTVTFSNPEESKKYAEKVARKLGGQVELHNGQFRIK [A18S] | 0.985 kcal/mol
MQVTWGNVTVTFSNPEETKKYAEKVARKLGGQVELHNGQFRIK [A18T] | 0.656 kcal/mol
MQVTWGNVTVTFSNPEEVKKYAEKVARKLGGQVELHNGQFRIK [A18V] | 0.732 kcal/mol
MQVTWGNVTVTFSNPEEWKKYAEKVARKLGGQVELHNGQFRIK [A18W] | 1.08 kcal/mol
MQVTWGNVTVTFSNPEEYKKYAEKVARKLGGQVELHNGQFRIK [A18Y] | 0.88 kcal/mol
MQVTWGNVTVTFSNPEEAAKYAEKVARKLGGQVELHNGQFRIK [K19A] | 2.53 kcal/mol
MQVTWGNVTVTFSNPEEADKYAEKVARKLGGQVELHNGQFRIK [K19D] | 0.816 kcal/mol
MQVTWGNVTVTFSNPEEAEKYAEKVARKLGGQVELHNGQFRIK [K19E] | 2.21 kcal/mol
MQVTWGNVTVTFSNPEEAFKYAEKVARKLGGQVELHNGQFRIK [K19F] | 2.94 kcal/mol
MQVTWGNVTVTFSNPEEAGKYAEKVARKLGGQVELHNGQFRIK [K19G] | 1.83 kcal/mol
MQVTWGNVTVTFSNPEEAHKYAEKVARKLGGQVELHNGQFRIK [K19H] | 2.34 kcal/mol
MQVTWGNVTVTFSNPEEAIKYAEKVARKLGGQVELHNGQFRIK [K19I] | 2.42 kcal/mol
MQVTWGNVTVTFSNPEEALKYAEKVARKLGGQVELHNGQFRIK [K19L] | 3.02 kcal/mol
MQVTWGNVTVTFSNPEEAMKYAEKVARKLGGQVELHNGQFRIK [K19M] | 2.66 kcal/mol
MQVTWGNVTVTFSNPEEANKYAEKVARKLGGQVELHNGQFRIK [K19N] | 1.71 kcal/mol

From the MegaScale stability set (Tsuboyama et al. 2023)
